According to paper PMC4349446:

Target: Recombinant truncated LOX-1 (61–273 amino acids, extracellular domain) with a hexa-histidine tag (human) (UniProt P78380)
Assay: ELISA; human LOX-1 (1 μg/ml) coated on wells; hSAA3 peptide 10–2,000 ng/ml in PBS-0.05% Tween20–0.5% Triton X-100; retained peptide detected with monoclonal anti-hSAA3-HRP

- Kd: 99 nM
Substance: hSAA3 C-terminal 26 mer synthetic peptide
